Numbering of substitutions follows the chain as printed. Numbers in names are those of the source.
T1: cynomolgus monkey (Macaca fascicularis) TfR1 (cynomolgus monkey (Macaca fascicularis), UniProt Q5RDH6 89-760 (Pongo abelii entry), limits assumed)
T1 construct: also called cTfR1; cyTfR1
T1 chain: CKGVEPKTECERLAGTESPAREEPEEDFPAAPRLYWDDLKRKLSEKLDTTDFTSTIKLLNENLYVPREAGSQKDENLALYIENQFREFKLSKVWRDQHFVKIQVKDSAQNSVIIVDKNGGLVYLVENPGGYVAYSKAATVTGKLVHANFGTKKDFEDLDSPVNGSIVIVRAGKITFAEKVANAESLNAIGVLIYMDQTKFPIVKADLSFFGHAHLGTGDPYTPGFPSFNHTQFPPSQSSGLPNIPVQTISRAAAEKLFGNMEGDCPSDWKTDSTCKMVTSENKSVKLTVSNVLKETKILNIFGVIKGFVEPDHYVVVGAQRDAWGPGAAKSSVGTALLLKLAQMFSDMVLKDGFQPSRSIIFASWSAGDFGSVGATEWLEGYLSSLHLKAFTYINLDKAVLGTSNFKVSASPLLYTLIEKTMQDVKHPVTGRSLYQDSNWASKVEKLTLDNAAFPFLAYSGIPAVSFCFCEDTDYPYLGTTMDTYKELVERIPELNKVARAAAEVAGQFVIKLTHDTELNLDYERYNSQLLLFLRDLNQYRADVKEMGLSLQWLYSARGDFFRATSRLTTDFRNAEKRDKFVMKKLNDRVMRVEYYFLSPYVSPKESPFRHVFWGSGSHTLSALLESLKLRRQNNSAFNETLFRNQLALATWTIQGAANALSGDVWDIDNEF

B1: humanized anti-TfR Fab 3A4 VH3 (N54T)/Vk4 (Fab, V domains shown)
VH: EVQLVQSGSELKKPGASVKVSCTASGFNIKDDYMYWVRQPPGKGLEWIGWIDPETGDTEYASKFQDRVTVTADTSTNTAYMELSSLRSEDTAVYYCTLWLRRGLDYWGQGTLVTVSS
VL: DIVMTQSPLSLPVTPGEPASISCRSSKSLLHSNGYTYLFWFQQRPGQSPRLLIYRMSNLASGVPDRFSGSGSGTDFTLKISRVEAEDVGVYYCMQHLEYPFTFGGGTKVEIKR
B2: humanized anti-TfR Fab 3A4 VH3 (N54S)/Vk4 (Fab, V domains shown)
VH: B1 VH with T55S
VL: B1 VL
B3: humanized anti-TfR Fab 3A4 VH3/Vk4 (Fab, V domains shown)
VH: B1 VH with T55N
VL: B1 VL
B4: humanized anti-TfR Fab 3M12 VH3/Vk2 (Fab, V domains shown)
VH: QVQLQESGPGLVKPSQTLSLTCSVTGYSITSGYYWNWIRQPPGKGLEWMGYITFDGANNYNPSLKNRVSISRDTSKNQFSLKLSSVTAEDTATYYCTRSSYDYDVLDYWGQGTTVTVSS
VL: DIQMTQSPSSLSASVGDRVTITCRASQDISNFLNWYQQKPGQPVKLLIYYTSRLHSGVPSRFSGSGSGTDFTLTISSLQPEDFATYFCQQGHTLPYTFGQGTKLEIKR
B5: humanized anti-TfR Fab 3M12 VH3/Vk3 (Fab, V domains shown)
VH: B4 VH
VL: B4 VL with F87Y
B6: humanized anti-TfR Fab 3M12 VH4/Vk2 (Fab, V domains shown)
VH: B4 VH with S23T, M49I
VL: B4 VL
B7: humanized anti-TfR Fab 5H12 VH5 (C33Y)/Vk4 (Fab, V domains shown)
VH: QVQLVQSGAEVKKPGASVKVSCKASGYSFTDYYINWVRQAPGQGLEWMGWIYPGSGNTRYSERFKGRVTITRDTSASTAYMELSSLRSEDTAVYYCAREDYYPYHGMDYWGQGTLVTVSS
VL: DIVMTQSPDSLAVSLGERATINCRASESVDGYDNSFMHWYQQKPGQPPKLLIFRASNLESGVPDRFSGSGSGTDFTLTISSLQAEDVAVYYCQQSSEDPWTFGQGTKLEIKR
B8: humanized anti-TfR Fab 5H12 VH5 (C33D)/Vk4 (Fab, V domains shown)
VH: B7 VH with Y33D
VL: B7 VL
B9: humanized anti-TfR Fab 5H12 VH5 (C33Y)/Vk3 (Fab, V domains shown)
VH: B7 VH
VL: B7 VL with M4L, G72R
B10: anti-TfR Fab 3M12 VH4/Vk3 (Fab, V domains shown)
VH: B4 VH with S23T, M49I
VL: B4 VL with F87Y
B11: conjugate of humanized anti-TfR Fab 3A4 VH3 (N54T)/Vk4 with DMPK-targeting oligonucleotide ASO300 (Fab, V domains shown)
VH: B1 VH
VL: B1 VL
modifications: ASO300 oligonucleotide attached through a cleavable Val-Cit linker (Formula (C)); residue and chain not stated
notes: also called 3A4 (VH3-N54T/Vk4) conjugate; DMPK oligo conjugate
B12: conjugate of humanized anti-TfR Fab 3A4 VH3 (N54S)/Vk4 with DMPK-targeting oligonucleotide ASO300 (Fab, V domains shown)
VH: B1 VH with T55S
VL: B1 VL
modifications: ASO300 oligonucleotide attached through a cleavable Val-Cit linker (Formula (C)); residue and chain not stated
notes: also called 3A4 (VH3-N54S/Vk4) conjugate; DMPK oligo conjugate
B13: conjugate of humanized anti-TfR Fab 3A4 VH3/Vk4 with DMPK-targeting oligonucleotide ASO300 (Fab, V domains shown)
VH: B1 VH with T55N
VL: B1 VL
modifications: ASO300 oligonucleotide attached through a cleavable Val-Cit linker (Formula (C)); residue and chain not stated
notes: also called 3A4 (VH3/Vk4) conjugate; DMPK oligo conjugate
B14: conjugate of humanized anti-TfR Fab 3M12 VH3/Vk2 with DMPK-targeting oligonucleotide ASO300 (Fab, V domains shown)
VH: B4 VH
VL: B4 VL
modifications: ASO300 oligonucleotide attached through a cleavable Val-Cit linker (Formula (C)); residue and chain not stated
notes: also called 3M12 (VH3/Vk2) conjugate; DMPK oligo conjugate
B15: conjugate of humanized anti-TfR Fab 3M12 VH4/Vk3 with DMPK-targeting oligonucleotide ASO300 (Fab, V domains shown)
VH: B4 VH with S23T, M49I
VL: B4 VL with F87Y
modifications: ASO300 oligonucleotide attached through a cleavable Val-Cit linker (Formula (C)); residue and chain not stated
notes: also called 3M12 (VH4/Vk3) conjugate; DMPK oligo conjugate
B16: conjugate of humanized anti-TfR Fab 5H12 VH5 (C33Y)/Vk4 with DMPK-targeting oligonucleotide ASO300 (Fab, V domains shown)
VH: B7 VH
VL: B7 VL
modifications: ASO300 oligonucleotide attached through a cleavable Val-Cit linker (Formula (C)); residue and chain not stated
notes: also called 5H12 (VH5-C33Y/Vk4) conjugate; DMPK oligo conjugate
B17: conjugate of humanized anti-TfR Fab 5H12 VH5 (C33D)/Vk4 with DMPK-targeting oligonucleotide ASO300 (Fab, V domains shown)
VH: B7 VH with Y33D
VL: B7 VL
modifications: ASO300 oligonucleotide attached through a cleavable Val-Cit linker (Formula (C)); residue and chain not stated
notes: also called 5H12 (VH5-C33D/Vk4) conjugate; DMPK oligo conjugate
B18: conjugate of humanized anti-TfR Fab 5H12 VH5 (C33Y)/Vk3 with DMPK-targeting oligonucleotide ASO300 (Fab, V domains shown)
VH: B7 VH
VL: B7 VL with M4L, G72R
modifications: ASO300 oligonucleotide attached through a cleavable Val-Cit linker (Formula (C)); residue and chain not stated
notes: also called 5H12 (VH5-C33Y/Vk3) conjugate

Target: T1, cynomolgus monkey (Macaca fascicularis) …
Experiment: ELISA, coated recombinant TfR1, unconjugated Fab
Procedure: (§1) To measure binding of humanized anti-TfR antibodies to TfR1, ELISAs were conducted. High binding, black, flat bottom, 96 well plates (Corning# 3925) were first coated with 100 µL/well of recombinant huTfR1 at 1 µg/mL in PBS and incubated at 4° C. overnight. Wells were emptied and residual liquid was removed. Blocking was conducted by adding 200 µL of 1%BSA (w/w) in PBS to each well. Blocking was allowed to proceed for 2 hours at room temperature on a shaker at 300 rpm. After blocking, liquid was removed and wells were washed three times with 300 µL of TBST. Anti-TfR1 antibodies were then added in 0.5% BSA/TBST in triplicate in an 8 point serial dilution (dilution range 5 µg/mL- 5 ng/mL). A positive control and isotype controls were also included on the ELISA plate. The plate was incubated at room temperature on an orbital shaker for 60 minutes at 300 rpm, and the plate was washed three times with 300 µL of TBST. Anti-(H+L)IgG-A488 (1:500) (Invitrogen #A11013) was diluted in 0.5% BSA in TBST, and 100 µL was added to each well. The plate was then allowed to incubate at room temperature for 60 minutes at 300 rpm on orbital shaker. The liquid was removed and the plate was washed four times with 300 µL of TBST. Absorbance was then measured at 495 nm excitation and […] (with a 15 nm bandwidth) on a plate reader. Data was recorded and analyzed for EC₅₀. […] ELISA measurements were conducted using cynomolgus monkey (Macaca fascicularis) TfR1 (cTfR1) according to the same protocol described above for hTfR1, and results are shown in FIGS. 9B, 9D, and 9F.

EC50 [nM] | Binder
156 | B1
398 | B2
122 | B3
9.9 | B4
4.7 | B5
1.4 | B6
3.3 | B7
3.5 | B8
2.1 | B9

Target: T1, cynomolgus monkey (Macaca fascicularis) …
Experiment: ELISA, d9 (after 9 days at 40 C)

EC50 [nM] | Binder
128 | B1
248 | B2
878 | B3
19.5 | B4
15.6 | B5
5.01 | B6
16.4 | B10
0.26 | B7
0.63 | B8
0.69 | B9

Target: T1, cynomolgus monkey (Macaca fascicularis) …
Experiment: ELISA, d0
Procedure: as §1

EC50 [nM] | Binder
156 | B1
398 | B2
122 | B3
9.9 | B4
4.7 | B5
1.4 | B6
3.3 | B7
3.5 | B8
2.1 | B9

Target: T1, cynomolgus monkey (Macaca fascicularis) …
Experiment: ELISA, Fab-ASO300 conjugate

EC50 [nM] | Binder
5.12 | B11
4.1 | B12
7.59 | B13
2.26 | B14
1.85 | B15
13.9 | B16
10.2 | B17

Target: T1, cynomolgus monkey (Macaca fascicularis) …
Experiment: ELISA, coated recombinant TfR1, Fab-ASO300 conjugate

EC50 [nM] | Binder
4.7 | B11
7.8 | B12
7.6 | B13
2.9 | B14
2.1 | B15
3.3 | B16
10.2 | B17
2.3 | B18

Source: patent US20230285582A1 (published 2023)
